Reference: the DeepSol protein solubility set

Test: soluble on expression in E. coli; label from the status in PepcDB or PDB records

Soluble on expression in E. coli, soluble:
GIDPFTTARKSTGGKAPRKGGMVVKKRKLATEAGGSDERPKYLPGKHPKNQEKTPHVDYNAPLNPKSELFLDDWHIPKFNRFISFTLDVLIDKYKDIFKDFIKLPSRKFHPQYYYKIQQPMSINEIKSRDYEYEDGPSNFLLDVELLTKNCQAYNEYDSLIVKNSMQVVMLIEFEVLKAKNLKRNYLINSEVKAKLLHYLNKLVDATEKKINQALLGASSPKNLDDKVKLSEPFMELVDKDELPEYYEIVHSPMALSIVKQNLEIGQYSKIYDFIIDMLLVFQNAHIFNDPSALIYKDATTLTNYFNYLIQKEFFPELQDLNERGEINLEFDKFEFENYLAIGGGGPAAAGALAISALDND
MATNFLVGEKIWFHKFKYGDAERRFYEQMNGPVAGASLQEASMILHDIARARENIPKSLAGSLGPGASSGPSGDHSELVVRIASLEVDNQRDLAERAGEELARPLGHSPADPAHVSHAPSGAPGQEASHTSRG
SSGIHVALVTGGNKGIGLAIVRDLCRLFSGDVVLTARDVTRGQAAVQQLQAEGLSPRFHQLDIDDLQSIRALRDFLRKEYGGLDVLVNNAGIAFKVADPTPFHIQAEVTMKTNFFGTRDVCTELLPLIKPQGRVVNVSSIMSVRALKSCSPELQQKFRSETITEEELVGLMNKFVEDTKKGVHQKEGWPSSAYGVTKIGVTVLSRIHARKLSEQRKGDKILLNACCPGWVRTDMAGPKATKSPEEGAETPVYLALLPPDAEGPHGQFVSEKRVEQW
SSLYRLFQSSKRPFASFSAPLVRFTNSRCVSAVLSRKETAPSSIYGNRVSRVSGFGALDIRSLNFSTKSSQINDAGSIDQTLMQSMELKIKEQLNAESVTVTDMSGDGRHVCINVVSSAFEGQSAVNRQRMVYKAIWEELQNVVHAVDQMTTKTPSEV

Soluble on expression in E. coli, not soluble:
MGSDKIHHHHHHMKIGILSQFPELYSTRRLVAACESRGHEAVVINTLNCYMNINSIKPSIHYQGQELTGFDAIIPRIHASVTFYGCAVVRQFEMMGVFAANDSISIARSRDKLRALQLLSRKGIGMPITGFANKPNDIPDLINMVGGAPLVIKLLEGTQGIGVVLAETKTAAESVIEAFLGLKANIMLQEYIKESNGSDIRCFVVGDKVVASMKRQGPEGDFRSNLHLGGCGEKVKITPKERKMAVAAVKAMGLVVAGVDILRSNRGPLILEVNSAPGIEGIEQTTGISVTEPIVEYIEKMVLAQKSNRPVIA
RENRNGDLYSLIYGTVSSEAIDPVEKKPLYHFFPGSYVYSVGTIGCNFRCKHCQNWSISQVCLEDAYTKDILPEELVERALLSDSKSIAWTYNEPTIWHEYTYESAKLAKEAGLGTIYVTNGYMTPESLKHIAPYLDAANIDIKAFNEKFYHDIASAKLAPVLEASALAKELGIHVEITTLIIPGVNDSLDELRELSKWVYKNLGPDTPLHFTRFHPQYKMQDLSPTPVKTMENACKIATEEGMKYVYMGNV
MNRSDKWQQRVAQVAYRFNQQYQNQSLELPAEVQEMPIYREWISGILAGKIASPFWEMAQPQKNQHCLDIGCGVSFLIYPWRDWQAFFYGQDVSNVARDTLNSRGSQLNSKLFKGVELGAAHQLKYTLSYFDLAIATGFSCYFPLEYWTSVLQAVKRVLKPDGHFVFDILNAAHPQAEDWAVLETYLGAEVFLEPVTEWEKIINAAGAKVVGRQPGEFFDLYKLRLEHHHHHH
MGSDKIHHHHHHMKVLLINGSPNQYGCTYTALNEITKVLSKHDIKTEILYLGKETIPGCISCASCFETGKCIRNDKVNELIEDLDNIDGIIIGSPVYFSSATGQLTSFLDRLFFIAGSRMATKLGASVVSCRRGGASATFDQLNKYFSISNMPIVSSQYWNQVHGFTPEDVMKDEEGLQTMRTLGENMAWLLKCISAGKKAGIKEPQYEETIMTNFIK
MGSDKIHHHHHHMWFKNLKIYRLSAPWALNGDQLEECLARFAYQGGNNLEMQSLGWISPRENGLLAHTLNGQILLTLRAEKKLLPTTVVNQVAKARAQEIEEQQGYKPGRKQMKEIKERVTDELLPKAFSIYRDTRVWIDTVNHWLVIDAAASAKADEVIGLLVKTIDPLPLDNLYVEQSPAAAMTGWLAADEAPANFSIDQDTELRASGESRAAIRYVKHSIDVDDVRRHIQSGKQCTRLAMTWADRVSFVLTESLDVKRVAPLDVLKENPDAATQNDDEKFDSDMTLMTGEVAKLLAELVDSLGGEKRV
MSLFDFFKNKGSAATATDRLKLILAKERTLNLPYMEEMRKEIIAVIQKYTKSSDIHFKTLDSNQSVETIEVEIILPR
